Reference: patent US20080085863A1 (WISCONSIN ALUMNI RESEARCH FOUNDATION, published 2008)

T1: Flag-tagged recombinant bone morphogenetic protein-1 (BMP-1) (UniProt P13497-2 121-730, limits assumed)
T1 construct: Prepared as in Scott et al. 1999 (cited); In the Ki and complex-formation experiments it was metabolically labelled with 35S and purified on an anti-FLAG M2 column; also called 35S-radiolabeled BMP-1; recombinant BMP-1; not shown: Flag tag
T1 sequence (looked up): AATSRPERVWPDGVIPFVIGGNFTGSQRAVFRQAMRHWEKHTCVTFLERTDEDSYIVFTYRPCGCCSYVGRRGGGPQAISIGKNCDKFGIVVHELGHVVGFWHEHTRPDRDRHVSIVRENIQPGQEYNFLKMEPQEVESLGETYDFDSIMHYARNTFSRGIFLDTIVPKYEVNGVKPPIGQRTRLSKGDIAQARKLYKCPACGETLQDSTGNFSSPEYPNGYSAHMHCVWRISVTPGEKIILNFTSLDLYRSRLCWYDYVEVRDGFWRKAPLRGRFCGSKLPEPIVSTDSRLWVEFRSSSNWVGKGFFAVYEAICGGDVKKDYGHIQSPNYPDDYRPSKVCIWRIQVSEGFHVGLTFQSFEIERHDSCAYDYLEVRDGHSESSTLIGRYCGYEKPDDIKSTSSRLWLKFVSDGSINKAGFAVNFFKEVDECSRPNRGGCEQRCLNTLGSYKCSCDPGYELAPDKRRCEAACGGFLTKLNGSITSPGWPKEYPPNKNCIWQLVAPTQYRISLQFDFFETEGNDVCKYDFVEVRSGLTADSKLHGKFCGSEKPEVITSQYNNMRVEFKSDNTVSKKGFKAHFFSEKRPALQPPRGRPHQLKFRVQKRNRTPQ

B1: human α2-macroglobulin from plasma (Sigma-Aldrich) (other)
chain: SVSGKPQYMVLVPSLLHTETTEKGCVLLSYLNETVTVSASLESVRGNRSLFTDLEAENDVLHCVAFAVPKSSSNEEVMFLTVQVKGPTQEFKKRTTVMVKNEDSLVFVQTDKSIYKPGQTVKFRVVSMDENFHPLNELIPLVYIQDPKGNRIAQWQSFQLEGGLKQFSFPLSSEPFQGSYKVVVQKKSGGRTEHPFTVEEFVLPKFEVQVTVPKIITILEEEMNVSVCGLYTYGKPVPGHVTVSICRKYSDASDCHGEDSQAFCEKFSGQLNSHGCFYQQVKTKVFQLKRKEYEMKLHTEAQIQEEGTVVELTGRQSSEITRTITKLSFVKVDSHFRQGIPFFGQVRLVDGKGVPIPNKVIFIRGNEANYYSNATTDEHGLVQFSINTTNVMGTSLTVRVNYKDRSPCYGYQWVSEEHEEAHHTAYLVFSPSKSFVHLEPMSHELPCGHTQTVQAHYILNGGTLLGLKKLSFYYLIMAKGGIVRTGTHGLLVKQEDMKGHFSISIPVKSDIAPVARLLIYAVLPTGDVIGDSAKYDVENCLANKVDLSFSPSQSLPASHAHLRVTAAPQSVCALRAVDQSVLLMKPDAELSASSVYNLLPEKDLTGFPGPLNDQDDEDCINRHNVYINGITYTPVSSTNEKDMYSFLEDMGLKAFTNSKIRKPKMCPQLQQYEMHGPEGLRVGFYESDVMGRGHARLVHVEEPHTETVRKYFPETWIWDLVVVNSAGVAEVGVTVPDTITEWKAGAFCLSEDAGLGISSTASLRAFQPFFVELTMPYSVIRGEAFTLKATVLNYLPKCIRVSVQLEASPAFLAVPVEKEQAPHCICANGRQTVSWAVTPKSLGNVNFTVSAEALESQELCGTEVPSVPEHGRKDTVIKPLLVEPEGLEKETTFNSLLCPSGGEVSEELSLKLPPNVVEESARASVSVLGDILGSAMQNTQNLLQMPYGCGEQNMVLFAPNIYVLDYLNETQQLTPEIKSKAIGYLNTGYQRQLNYKHYDGSYSTFGERYGRNQGNTWLTAFVLKTFAQARAYIFIDEAHITQALIWLSQRQKDNGCFRSSGSLLNNAIKGGVEDEVTLSAYITIALLEIPLTVTHPVVRNALFCLESAWKTAQEGDHGSHVYTKALLAYAFALAGNQDKRKEVLKSLNEEAVKKDNSVHWERPQKPKAPVGHFYEPQAPSAEVEMTSYVLLAYLTAQPAPTSEDLTSATNIVKWITKQQNAQGGFSSTQDTVVALHALSKYGAATFTRTGKAAQVTIQSSGTFSSKFQVDNNNRLLLQQVSLPELPGEYSMKVTGEGCVYLQTSLKYNILPEKEEFPFALGVQTLPQTCDEPKAHTSFQISLSVSYTGSRSASNMAIVDVKMVSGFIPLKPTVKMLERSNHVSRTEVSSNHVLIYLDKVSNQTLSLFFTVLQDVPVRDLKPAIVKVYDYYETDEFAIAEYNAPCSKDLGNA
notes: Bought plasma protein; also called plasma α2M; serum α2M
B2: recombinant wild type α2-macroglobulin (FLAG-tagged) (other, not shown: small tags and cut ends)
chain: SVSGKPQYMVLVPSLLHTETTEKGCVLLSYLNETVTVSASLESVRGNRSLFTDLEAENDVLHCVAFAVPKSSSNEEVMFLTVQVKGPTQEFKKRTTVMVKNEDSLVFVQTDKSIYKPGQTVKFRVVSMDENFHPLNELIPLVYIQDPKGNRIAQWQSFQLEGGLKQFSFPLSSEPFQGSYKVVVQKKSGGRTEHPFTVEEFVLPKFEVQVTVPKIITILEEEMNVSVCGLYTYGKPVPGHVTVSICRKYSDASDCHGEDSQAFCEKFSGQLNSHGCFYQQVKTKVFQLKRKEYEMKLHTEAQIQEEGTVVELTGRQSSEITRTITKLSFVKVDSHFRQGIPFFGQVRLVDGKGVPIPNKVIFIRGNEANYYSNATTDEHGLVQFSINTTNVMGTSLTVRVNYKDRSPCYGYQWVSEEHEEAHHTAYLVFSPSKSFVHLEPMSHELPCGHTQTVQAHYILNGGTLLGLKKLSFYYLIMAKGGIVRTGTHGLLVKQEDMKGHFSISIPVKSDIAPVARLLIYAVLPTGDVIGDSAKYDVENCLANKVDLSFSPSQSLPASHAHLRVTAAPQSVCALRAVDQSVLLMKPDAELSASSVYNLLPEKDLTGFPGPLNDQDDEDCINRHNVYINGITYTPVSSTNEKDMYSFLEDMGLKAFTNSKIRKPKMCPQLQQYEMHGPEGLRVGFYESDVMGRGHARLVHVEEPHTETVRKYFPETWIWDLVVVNSAGVAEVGVTVPDTITEWKAGAFCLSEDAGLGISSTASLRAFQPFFVELTMPYSVIRGEAFTLKATVLNYLPKCIRVSVQLEASPAFLAVPVEKEQAPHCICANGRQTVSWAVTPKSLGNVNFTVSAEALESQELCGTEVPSVPEHGRKDTVIKPLLVEPEGLEKETTFNSLLCPSGGEVSEELSLKLPPNVVEESARASVSVLGDILGSAMQNTQNLLQMPYGCGEQNMVLFAPNIYVLDYLNETQQLTPEIKSKAIGYLNTGYQRQLNYKHYDGSYSTFGERYGRNQGNTWLTAFVLKTFAQARAYIFIDEAHITQALIWLSQRQKDNGCFRSSGSLLNNAIKGGVEDEVTLSAYITIALLEIPLTVTHPVVRNALFCLESAWKTAQEGDHGSHVYTKALLAYAFALAGNQDKRKEVLKSLNEEAVKKDNSVHWERPQKPKAPVGHFYEPQAPSAEVEMTSYVLLAYLTAQPAPTSEDLTSATNIVKWITKQQNAQGGFSSTQDTVVALHALSKYGAATFTRTGKAAQVTIQSSGTFSSKFQVDNNNRLLLQQVSLPELPGEYSMKVTGEGCVYLQTSLKYNILPEKEEFPFALGVQTLPQTCDEPKAHTSFQISLSVSYTGSRSASNMAIVDVKMVSGFIPLKPTVKMLERSNHVSRTEVSSNHVLIYLDKVSNQTLSLFFTVLQDVPVRDLKPAIVKVYDYYETDEFAIAEYNAPCSKDLGNA
notes: Expressed in 293 T-REx cells with the native signal peptide replaced by the BM40 signal peptide; also called rα2M; recombinant α2M

Legend:
[1] = target: T1, Flag-tagged recombinant bone …; assay: time course of covalent complex formation of 40 nM 35S-BMP-1 with increasing α2M, SDS-PAGE densitometry (method of Enghild et al.)
Method: 40 nM ³⁵S-labeled BMP-1 was incubated with 20, 40, 80, 160, and 240 nM plasma α₂M, or recombinant wild type α₂M or with 5, 10, 20, 40, and 80 nM b-α₂M at 37° C. in 50 mM Tris-HCl, pH 7.5, 100 mM NaCl and 10 mM CaCl₂. Reactions were stopped at 10, 30, 60, 90 and 120 minutes (plasma α₂M and recombinant wild type α₂M), or at 2, 5, 10, 20 and 30 minutes (b-α₂M) by adding. SDS-PAGE sample buffer and boiling 5 minutes at 95° C. Protein samples were separated on 7.5% acrylamide SDS-PAGE gels, which were then treated with EN³HANCE (DuPont) and exposed to film. Percentages of BMP-1 incorporated into high molecular weight complexes were determined by densitometry and kinetic parameters were determined essentially via the method of Enghild J, et al, “Interaction of human rheumatoid synovial collagenase (matrix metalloproteinase 1) and stromelysin (matrix metalloproteinase 3) with human alpha 2-macroglobulin and chicken ovostatin. Binding kinetics and identification of matrix metalloproteinase cleavage sites,” J. Biol. Chem. 264:8779-8785 (1989).
To obtain a quantitative comparison of the rates of interaction of BMP-1 with the various wild type and mutant forms of α₂M, we employed the methodology of Enghild et al., supra, which involves quantification of covalent proteinase-α₂M complex formation, subsequent to incubation of radiolabeled proteinase with α₂M.

[2] = target: T1, Flag-tagged recombinant bone …; assay: cell-based or functional assay

Binder	Ki [1] [nM]	inhibition of BMP-1 pCP activity (cleavage of 3H-radiolabeled type I procollagen), IC50 [2] [nM]	pCP inhibitory activity, IC50 [2] [nM]
B1	25.2	4.8	–
B2	39.5	–	133
